Data taken from patent US7558625B2, “Combined micro-channel generation and iontophoresis for transdermal delivery of pharmaceutical agents” (TransPharma Medical Ltd., priority 2004, dated 2009).

Assay: Transdermal delivery of hGH by ViaDerm and iontophoresis in anesthetized pigs, plasma hGH
Type: in vivo
Set-up: average AUC: unit: ng×hr/ml
Description: ViaDerm applications were performed on 8 adjacent sites on the marginal ear of each of the pigs using 80 μm electrodes and 2 bursts.
2 groups of pigs (males, 10-15 kg, large white) were tested: • Group 1: SC (250 μg)—3 pigs (no. 3, 9 and 25). • Group 2: ViaDerm and then iontophoresis was applied 5 times, each iontophoresis patch contained 22.5 mg (22.5×5; total of 112.5 mg)—3 pigs (no. 19, 20 and 21). Results

[1] = pigs, ViaDerm and Iontophoresis group, 5 consecutive patches

hGH: human growth hormone (Genotropin, Pharmacia and Upjohn)
hGH plasma levels (SC 0.25 mg hGH, pig3, 0 h): 0.14 ng/mL
hGH plasma levels (SC 0.25 mg hGH, pig3, 1 h): 6.40 ng/mL
hGH plasma levels (SC 0.25 mg hGH, pig3, 2 h): 10.57 ng/mL
hGH plasma levels (SC 0.25 mg hGH, pig3, 3 h): 6.02 ng/mL
hGH plasma levels (SC 0.25 mg hGH, pig3, 4 h): 5.39 ng/mL
hGH plasma levels (SC 0.25 mg hGH, pig3, 5 h): 2.57 ng/mL
hGH plasma levels (SC 0.25 mg hGH, pig3, 6 h): 3.35 ng/mL
hGH plasma levels (SC 0.25 mg hGH, pig3, 7 h): 2.40 ng/mL
hGH plasma levels (SC 0.25 mg hGH, pig3, 8 h): 2.00 ng/mL
hGH plasma levels (SC 0.25 mg hGH, pig3, 9 h): 1.48 ng/mL
hGH plasma levels (SC 0.25 mg hGH, pig3, 10 h): 1.18 ng/mL
hGH plasma levels (SC 0.25 mg hGH, pig3, 11 h): 1.49 ng/mL
hGH plasma levels (SC 0.25 mg hGH, pig3, 12 h): 1.75 ng/mL
hGH plasma levels (SC 0.25 mg hGH, pig9, 0 h): 0.08 ng/mL
hGH plasma levels (SC 0.25 mg hGH, pig9, 1 h): 22.96 ng/mL
hGH plasma levels (SC 0.25 mg hGH, pig9, 2 h): 18.06 ng/mL
hGH plasma levels (SC 0.25 mg hGH, pig9, 3 h): 15.88 ng/mL
hGH plasma levels (SC 0.25 mg hGH, pig9, 4 h): 12.39 ng/mL
hGH plasma levels (SC 0.25 mg hGH, pig9, 5 h): 9.85 ng/mL
hGH plasma levels (SC 0.25 mg hGH, pig9, 6 h): 6.53 ng/mL
hGH plasma levels (SC 0.25 mg hGH, pig9, 7 h): 6.31 ng/mL
hGH plasma levels (SC 0.25 mg hGH, pig9, 8 h): 4.19 ng/mL
hGH plasma levels (SC 0.25 mg hGH, pig9, 9 h): 2.58 ng/mL
hGH plasma levels (SC 0.25 mg hGH, pig9, 10 h): 1.83 ng/mL
hGH plasma levels (SC 0.25 mg hGH, pig9, 11 h): 1.25 ng/mL
hGH plasma levels (SC 0.25 mg hGH, pig9, 12 h): 0.88 ng/mL
hGH plasma levels (SC 0.25 mg hGH, pig25, 0 h): 0.10 ng/mL
hGH plasma levels (SC 0.25 mg hGH, pig25, 1 h): 38.06 ng/mL
hGH plasma levels (SC 0.25 mg hGH, pig25, 2 h): 31.00 ng/mL
hGH plasma levels (SC 0.25 mg hGH, pig25, 3 h): 16.32 ng/mL
hGH plasma levels (SC 0.25 mg hGH, pig25, 4 h): 13.40 ng/mL
hGH plasma levels (SC 0.25 mg hGH, pig25, 5 h): 8.69 ng/mL
hGH plasma levels (SC 0.25 mg hGH, pig25, 6 h): 6.66 ng/mL
hGH plasma levels (SC 0.25 mg hGH, pig25, 7 h): 3.89 ng/mL
hGH plasma levels (SC 0.25 mg hGH, pig25, 8 h): 2.76 ng/mL
hGH plasma levels (SC 0.25 mg hGH, pig25, 9 h): 1.67 ng/mL
hGH plasma levels (SC 0.25 mg hGH, pig25, 10 h): 1.19 ng/mL
hGH plasma levels (SC 0.25 mg hGH, pig25, 11 h): 1.09 ng/mL
hGH plasma levels (SC 0.25 mg hGH, pig25, 12 h): 0.78 ng/mL
hGH plasma levels (SC 0.25 mg hGH, pigs, Average, 0 h): 0.1 ng/mL
hGH plasma levels (SC 0.25 mg hGH, pigs, Average, 1 h): 22.5 ng/mL
hGH plasma levels (SC 0.25 mg hGH, pigs, Average, 2 h): 19.9 ng/mL
hGH plasma levels (SC 0.25 mg hGH, pigs, Average, 3 h): 12.7 ng/mL
hGH plasma levels (SC 0.25 mg hGH, pigs, Average, 4 h): 10.4 ng/mL
hGH plasma levels (SC 0.25 mg hGH, pigs, Average, 5 h): 7.0 ng/mL
hGH plasma levels (SC 0.25 mg hGH, pigs, Average, 6 h): 5.5 ng/mL
hGH plasma levels (SC 0.25 mg hGH, pigs, Average, 7 h): 4.2 ng/mL
hGH plasma levels (SC 0.25 mg hGH, pigs, Average, 8 h): 3.0 ng/mL
hGH plasma levels (SC 0.25 mg hGH, pigs, Average, 9 h): 1.9 ng/mL
hGH plasma levels (SC 0.25 mg hGH, pigs, Average, 11 h): 1.3 ng/mL
hGH plasma levels (SC 0.25 mg hGH, pigs, Average, 12 h): 1.1 ng/mL
average AUC (SC 250 μg, 3 pigs): 90.3
AUC (SC 250 μg, pig no. 3): 44 ng·h/mL
AUC (SC 250 μg, pig no. 9): 102 ng·h/mL
AUC (SC 250 μg, pig no. 25): 125 ng·h/mL
Amount delivered (SC 250 μg, pigs): 250 µg
average AUC (ViaDerm, Ionto 22.5 mg × 5, 3 pigs): 210.3
AUC (ViaDerm, Ionto 22.5 mg × 5, pig no. 19): 138 ng·h/mL
AUC (ViaDerm, Ionto 22.5 mg × 5, pig no. 20): 215 ng·h/mL
AUC (ViaDerm, Ionto 22.5 mg × 5, pig no. 21): 278 ng·h/mL
Amount delivered (ViaDerm, Ionto 22.5 mg × 5, pigs): 589 µg
hGH plasma levels (ViaDerm, Iontoph. × 5 Total 112.5 mg hGH, pig19, 0 h): 0.04 ng/mL
hGH plasma levels (ViaDerm, Iontoph. × 5 Total 112.5 mg hGH, pig19, 1 h): 8.39 ng/mL
hGH plasma levels (ViaDerm, Iontoph. × 5 Total 112.5 mg hGH, pig19, 2 h): 18.46 ng/mL
hGH plasma levels (ViaDerm, Iontoph. × 5 Total 112.5 mg hGH, pig19, 3 h): 24.50 ng/mL
hGH plasma levels (ViaDerm, Iontoph. × 5 Total 112.5 mg hGH, pig19, 4 h): 25.34 ng/mL
hGH plasma levels (ViaDerm, Iontoph. × 5 Total 112.5 mg hGH, pig19, 5 h): 25.27 ng/mL
hGH plasma levels (ViaDerm, Iontoph. × 5 Total 112.5 mg hGH, pig19, 6 h): 13.34 ng/mL
hGH plasma levels (ViaDerm, Iontoph. × 5 Total 112.5 mg hGH, pig19, 7 h): 9.63 ng/mL
hGH plasma levels (ViaDerm, Iontoph. × 5 Total 112.5 mg hGH, pig19, 8 h): 4.03 ng/mL
hGH plasma levels (ViaDerm, Iontoph. × 5 Total 112.5 mg hGH, pig19, 9 h): 4.08 ng/mL
hGH plasma levels (ViaDerm, Iontoph. × 5 Total 112.5 mg hGH, pig19, 10 h): 3.32 ng/mL
hGH plasma levels (ViaDerm, Iontoph. × 5 Total 112.5 mg hGH, pig19, 11 h): 1.42 ng/mL
hGH plasma levels (ViaDerm, Iontoph. × 5 Total 112.5 mg hGH, pig19, 12 h): 1.38 ng/mL
hGH plasma levels (ViaDerm, Iontoph. × 5 Total 112.5 mg hGH, pig20, 0 h): 0.06 ng/mL
hGH plasma levels (ViaDerm, Iontoph. × 5 Total 112.5 mg hGH, pig20, 1 h): 7.01 ng/mL
hGH plasma levels (ViaDerm, Iontoph. × 5 Total 112.5 mg hGH, pig20, 2 h): 22.45 ng/mL
hGH plasma levels (ViaDerm, Iontoph. × 5 Total 112.5 mg hGH, pig20, 3 h): 26.93 ng/mL
hGH plasma levels (ViaDerm, Iontoph. × 5 Total 112.5 mg hGH, pig20, 4 h): 31.04 ng/mL
hGH plasma levels (ViaDerm, Iontoph. × 5 Total 112.5 mg hGH, pig20, 5 h): 28.21 ng/mL
hGH plasma levels (ViaDerm, Iontoph. × 5 Total 112.5 mg hGH, pig20, 6 h): 22.09 ng/mL
hGH plasma levels (ViaDerm, Iontoph. × 5 Total 112.5 mg hGH, pig20, 7 h): 44.00 ng/mL
hGH plasma levels (ViaDerm, Iontoph. × 5 Total 112.5 mg hGH, pig20, 8 h): 10.69 ng/mL
hGH plasma levels (ViaDerm, Iontoph. × 5 Total 112.5 mg hGH, pig20, 9 h): 8.98 ng/mL
hGH plasma levels (ViaDerm, Iontoph. × 5 Total 112.5 mg hGH, pig20, 10 h): 6.49 ng/mL
hGH plasma levels (ViaDerm, Iontoph. × 5 Total 112.5 mg hGH, pig20, 11 h): 4.91 ng/mL
hGH plasma levels (ViaDerm, Iontoph. × 5 Total 112.5 mg hGH, pig20, 12 h): 5.01 ng/mL
hGH plasma levels (ViaDerm, Iontoph. × 5 Total 112.5 mg hGH, pig21, 0 h): 0.08 ng/mL
hGH plasma levels (ViaDerm, Iontoph. × 5 Total 112.5 mg hGH, pig21, 1 h): 2.68 ng/mL
hGH plasma levels (ViaDerm, Iontoph. × 5 Total 112.5 mg hGH, pig21, 2 h): 10.38 ng/mL
hGH plasma levels (ViaDerm, Iontoph. × 5 Total 112.5 mg hGH, pig21, 3 h): 24.52 ng/mL
hGH plasma levels (ViaDerm, Iontoph. × 5 Total 112.5 mg hGH, pig21, 4 h): 28.87 ng/mL
hGH plasma levels (ViaDerm, Iontoph. × 5 Total 112.5 mg hGH, pig21, 5 h): 44.93 ng/mL
hGH plasma levels (ViaDerm, Iontoph. × 5 Total 112.5 mg hGH, pig21, 6 h): 34.25 ng/mL
hGH plasma levels (ViaDerm, Iontoph. × 5 Total 112.5 mg hGH, pig21, 7 h): 33.54 ng/mL
hGH plasma levels (ViaDerm, Iontoph. × 5 Total 112.5 mg hGH, pig21, 8 h): 28.93 ng/mL
hGH plasma levels (ViaDerm, Iontoph. × 5 Total 112.5 mg hGH, pig21, 9 h): 24.89 ng/mL
hGH plasma levels (ViaDerm, Iontoph. × 5 Total 112.5 mg hGH, pig21, 10 h): 22.46 ng/mL
hGH plasma levels (ViaDerm, Iontoph. × 5 Total 112.5 mg hGH, pig21, 11 h): 17.86 ng/mL
hGH plasma levels (ViaDerm, Iontoph. × 5 Total 112.5 mg hGH, pig21, 12 h): 9.00 ng/mL
hGH plasma levels (ViaDerm, Iontoph. × 5 Total 112.5 mg hGH, pigs, Average, 0 h): 0.06 ng/mL
hGH plasma levels (ViaDerm, Iontoph. × 5 Total 112.5 mg hGH, pigs, Average, 1 h): 6.03 ng/mL
hGH plasma levels (ViaDerm, Iontoph. × 5 Total 112.5 mg hGH, pigs, Average, 2 h): 17.10 ng/mL
hGH plasma levels (ViaDerm, Iontoph. × 5 Total 112.5 mg hGH, pigs, Average, 3 h): 25.32 ng/mL
hGH plasma levels (ViaDerm, Iontoph. × 5 Total 112.5 mg hGH, pigs, Average, 4 h): 28.41 ng/mL
hGH plasma levels (ViaDerm, Iontoph. × 5 Total 112.5 mg hGH, pigs, Average, 5 h): 32.80 ng/mL
hGH plasma levels (ViaDerm, Iontoph. × 5 Total 112.5 mg hGH, pigs, Average, 6 h): 23.23 ng/mL
hGH plasma levels (ViaDerm, Iontoph. × 5 Total 112.5 mg hGH, pigs, Average, 7 h): 29.06 ng/mL
hGH plasma levels (ViaDerm, Iontoph. × 5 Total 112.5 mg hGH, pigs, Average, 8 h): 14.55 ng/mL
hGH plasma levels (ViaDerm, Iontoph. × 5 Total 112.5 mg hGH, pigs, Average, 9 h): 12.65 ng/mL
hGH plasma levels (ViaDerm, Iontoph. × 5 Total 112.5 mg hGH, pigs, Average, 10 h): 10.75 ng/mL
hGH plasma levels (ViaDerm, Iontoph. × 5 Total 112.5 mg hGH, pigs, Average, 11 h): 8.06 ng/mL
hGH plasma levels (ViaDerm, Iontoph. × 5 Total 112.5 mg hGH, pigs, Average, 12 h): 5.13 ng/mL
average AUC value (pigs, SC group): 90.3 ng·h/mL
AUC [1]: 210.3 ng·h/mL
Cmax [1]: 32.8 ng/mL
Tmax [1]: 5 to 7 h
skin irritation at the drug and the reference electrode (pigs, ViaDerm and Iontophoresis treated group): no irritation was observed
